Source: the supplement of paper PMC7125110
± gives the standard error. This sample holds only a part of the variants without activity.

B1: glmS ribozyme (parent)
chain: AUAAAAGCGCCAGAACUACAGAAAUGUAGUUGACGAGGAGGAGGUUUAUCGAAUUUUCGGCGGAUGCCUCCAAA

How the values were obtained:
Conditions in all cases: with glucosamine-6-phosphate
glucosamine-6-phosphate [1] = variants of: B1; experiment: self-cleavage kobs at 40 uM GlcN6P; higher = faster cleavage; RNA array
Summary of the method: (§1)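 Using a hybridised Cy3 probe at 37 °C, barcoded ribozyme variants transcribed in situ by E. coli RNA polymerase on sequenced MiSeq chips were monitored across tiles imaged over ~14 h. The flow contained glucosamine-6-phosphate from 40 μM to 10 mM in HEPES/KCl/Mg(OAc)2 buffer. Signals were normalised to baseline and to non-cleaving reference variants before per-tile medians were fit to one- or two-exponential decays to yield kobs. Weighted Michaelis–Menten fits across concentrations gave kcat and KM.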

glucosamine-6-phosphate [2] = variants of: B1; experiment: self-cleavage kobs at 160 uM GlcN6P; higher = faster cleavage; RNA array
Summary of the method: as §1

glucosamine-6-phosphate [3] = variants of: B1; experiment: self-cleavage kobs at 640 uM GlcN6P; higher = faster cleavage; RNA array
Summary of the method: as §1

glucosamine-6-phosphate [4] = variants of: B1; experiment: self-cleavage kobs at 2500 uM GlcN6P; higher = faster cleavage; RNA array
Summary of the method: as §1

glucosamine-6-phosphate [5] = variants of: B1; experiment: self-cleavage kobs at 10000 uM GlcN6P; higher = faster cleavage; RNA array
Summary of the method: as §1

Variant	self-cleavage kobs at 40 uM GlcN6P (glucosamine-6-phosphate [1]) [s⁻¹]	self-cleavage kobs at 160 uM GlcN6P (glucosamine-6-phosphate [2]) [s⁻¹]	self-cleavage kobs at 640 uM GlcN6P (glucosamine-6-phosphate [3]) [s⁻¹]	self-cleavage kobs at 2500 uM GlcN6P (glucosamine-6-phosphate [4]) [s⁻¹]	self-cleavage kobs at 10000 uM GlcN6P (glucosamine-6-phosphate [5]) [s⁻¹]
A15G C71G	0.000107 ± 1.2e-05	0.000256 ± 4.1e-05	0.00066 ± 8.8e-05	0.00214 ± 0.00045	–
A15G C71A	0.000251 ± 5.9e-05	0.00102 ± 0.00025	0.00108 ± 0.00025	0.006 ± 0.0015	0.005 ± 0.0016
A14G A39U G44A	0.000196 ± 4.6e-05	–	–	–	0.00841 ± 0.0018
A14G A39G G41A U55G U69C A73U	< 1e-05	–	–	–	–
A14G G51C A53C	< 1e-05	–	–	–	–
A14G A53G C58U U65C C71U	< 1e-05	–	–	–	–
C16A U30A A33G U55C	< 1e-05	–	–	–	–
G13U A33C	< 1e-05	< 1e-05	< 1e-05	< 1e-05	–
A15C U56G	6.11e-05 ± 1.3e-05	7.19e-05 ± 1.9e-05	0.000276 ± 8.7e-05	0.0011 ± 0.00025	0.00228 ± 0.00048
A14C U31G A39U	0.000119 ± 2.4e-05	–	0.0016 ± 0.00039	–	0.0112 ± 0.003
A14U G40A U56G	0.000117 ± 2.9e-05	–	–	–	0.00163 ± 0.00045
A14U G41A G44A G60A	< 1e-05	–	–	–	–
A15U C50G	3.42e-05 ± 8.1e-06	8.86e-05 ± 1.4e-05	0.000494 ± 0.00023	7.94e-05 ± 1.4e-05	–
A14G C16U G41U	0.000207 ± 7.3e-05	–	–	–	0.00243 ± 0.00096
A14G U47G	0.00069 ± 9.9e-05	0.00132 ± 0.0004	0.00356 ± 0.00073	0.0139 ± 0.0037	0.0324 ± 0.0073
A14U G60U	< 1e-05	< 1e-05	< 1e-05	< 1e-05	< 1e-05
A14G U69A	0.000118 ± 2.8e-05	0.000124 ± 2.5e-05	0.000315 ± 9.3e-05	0.000142 ± 2.2e-05	0.000397 ± 9.9e-05
A14G G29U C34U	< 1e-05	–	–	–	–
C16A A52C	< 1e-05	< 1e-05	< 1e-05	–	< 1e-05
A15U C34G G66U C71U	< 1e-05	–	–	–	< 1e-05
A15G C50G C68U	0.000179 ± 3.4e-05	–	0.000492 ± 0.00016	0.000371 ± 0.00011	0.000154 ± 3.1e-05
A14G C50G C71U	0.000639 ± 0.00021	0.000245 ± 7.3e-05	0.00131 ± 0.00027	–	4.82e-05 ± 2e-05
A14G C50A G51A	< 1e-05	–	–	< 1e-05	–

Variant	self-cleavage kobs at 40 uM GlcN6P (glucosamine-6-phosphate [1]) [s⁻¹]	self-cleavage kobs at 160 uM GlcN6P (glucosamine-6-phosphate [2]) [s⁻¹]	self-cleavage kobs at 640 uM GlcN6P (glucosamine-6-phosphate [3]) [s⁻¹]	self-cleavage kobs at 2500 uM GlcN6P (glucosamine-6-phosphate [4]) [s⁻¹]	self-cleavage kobs at 10000 uM GlcN6P (glucosamine-6-phosphate [5]) [s⁻¹]
G13U A36U C50U C70U	7.67e-05 ± 2.7e-05	–	–	–	–
C16G A42G	0.000233 ± 5.6e-05	0.000208 ± 9.6e-05	0.000804 ± 0.0003	–	0.00496 ± 0.001
C16G A42U	< 1e-05	< 1e-05	–	–	–
G13C G51C G63C	< 1e-05	–	–	–	–
A14U C50G C67U	0.00027 ± 6.3e-05	0.000222 ± 7e-05	0.000192 ± 5.6e-05	0.000193 ± 5.8e-05	0.000112 ± 1.9e-05
A14U G51A	< 1e-05	–	–	–	< 1e-05
C16G U30G C61G	< 1e-05	–	–	–	< 1e-05
G13C U31G A48U	< 1e-05	–	–	–	–
A14G G29C G40A C58U	< 1e-05	–	< 1e-05	–	–
A14G G40A	0.000801 ± 0.00011	0.00119 ± 0.00039	0.0045 ± 0.00098	0.00484 ± 0.0011	0.0666 ± 0.029
A14U U69C	0.000126 ± 2.3e-05	0.000147 ± 2.2e-05	0.000362 ± 4.8e-05	0.000501 ± 0.00015	0.00132 ± 0.00026
A14C G29U G38U G44A A64U	< 1e-05	–	–	–	< 1e-05
A14C A15G C70U	6.72e-05 ± 1.7e-05	0.000124 ± 2.7e-05	0.000547 ± 0.00017	0.00207 ± 0.00058	–
G13U G29U A52G C67G	6.42e-05 ± 1.9e-05	–	–	–	8.86e-05 ± 1.8e-05
A14G U30A	0.000672 ± 0.00011	0.00098 ± 0.00024	0.00759 ± 0.0013	0.0384 ± 0.012	0.017 ± 0.0042
G13U G37A	< 1e-05	< 1e-05	–	–	6.96e-05 ± 8.5e-06
G13C G60A U65G G66C C71U	< 1e-05	–	–	–	< 1e-05
C16A G43A	< 1e-05	–	–	–	–
C16A G43C	< 1e-05	–	< 1e-05	–	< 1e-05
A15G G38C	< 1e-05	< 1e-05	< 1e-05	< 1e-05	–
A14C A33U A53U U56G	< 1e-05	–	–	–	2.92e-05 ± 1.4e-05
A14U A15C A33C C70G	< 1e-05	–	–	–	–
